The values that follow come from US20230295289A1 (INTERVET, published 2023).

Assay [1] deals with canine IL-31RA ECD-10His (canine). As to the kind of experiment: ELISA: IL-31RA ECD coated at 10 ug/mL, biotinylated IL-31 titrated 3-fold from 10 ug/mL, HRP-streptavidin.
For assay [2], the target named is T1, cIL-22-His (canine IL-22 with a His Tag) (canine).
T1 construct: also called cILHIS
T1 chain: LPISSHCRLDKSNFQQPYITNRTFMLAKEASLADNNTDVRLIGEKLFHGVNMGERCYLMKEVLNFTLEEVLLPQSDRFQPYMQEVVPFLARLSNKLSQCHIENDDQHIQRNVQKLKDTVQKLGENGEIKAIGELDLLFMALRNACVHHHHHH
As to the kind of experiment: ELISA: cIL-22-His coated, Fc fusion titrated from 10 ug/mL, anti-dog IgG (Fc)-HRP.

canine IL-31RA ECD-10His (canine), sequence (chain, as listed by the source limits assumed): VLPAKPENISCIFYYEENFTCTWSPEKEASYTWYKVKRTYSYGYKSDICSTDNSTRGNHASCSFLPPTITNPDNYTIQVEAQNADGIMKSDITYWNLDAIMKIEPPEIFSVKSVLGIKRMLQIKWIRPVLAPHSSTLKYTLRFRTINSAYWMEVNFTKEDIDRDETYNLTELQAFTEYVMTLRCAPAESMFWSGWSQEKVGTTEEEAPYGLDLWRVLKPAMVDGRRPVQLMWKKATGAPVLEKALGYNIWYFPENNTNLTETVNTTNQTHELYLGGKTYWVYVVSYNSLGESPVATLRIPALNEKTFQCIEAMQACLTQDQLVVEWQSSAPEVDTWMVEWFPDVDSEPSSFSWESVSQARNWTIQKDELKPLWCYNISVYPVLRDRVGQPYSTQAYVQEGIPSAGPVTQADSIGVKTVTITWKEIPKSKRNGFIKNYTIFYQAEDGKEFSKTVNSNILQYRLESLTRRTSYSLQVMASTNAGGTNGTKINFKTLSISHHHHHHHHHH

As to biotinylated canine IL-31 (ligand), the EC50 in assay [1] amounted to 0.368 µg/mL.

B1: canine IL-22RA1-FcB fusion protein (extracellular domain of canine IL-22RA1 with canine IgG-B Fc) (Fc fusion)
chain: AEDTSDLLQYVKFQSSNFENILTWDSGLESAPDVVYSVEYKTYGKKEWLAKEGCQRITRKSCNLTTETGNHTEHYYARVTAVSAGGRSATKMTDRFSSMQQTTIKPPDVTCIPKVRSIQMIVHPTSTPIHAEDGHRLTLEDIFQDLFYRLELQVNHTYQMHLGGKQRDYEFIGLSPDTEFLGTITISVPNFFKESAPYVCRVKTLPDRTWTGGGGSGGGGSPKRENGRVPRPPDCPKCPAPEMLGGPSVFIFPPKPKDTLLIARTPEVTCVVVALDPEDPEVQISWFVDGKQMQTAKTQPREEQFAGTYRVVSVLPIGHQDWLKGKQFTCKVNNKALPSPIERTISKARGQAHQPSVYVLPPSREELSKNTVSLTCLIKDFFPPDIDVEWQSNGQQEPESKYRTTPPQLDEDGSYFLYSKLSVDKSRWQRGDTFICAVMHEALHNHYTQESLSHSPG
notes: also called cIL-22RA1-Fc fusion protein; canine IL-22RA1-Fc fusion protein
Regarding B1, the binding result in assay [2] is on record as “binds”.

B2: canine IL-22BP-FcB fusion protein (canine IL-22BP (IL-22RA2) with canine IgG-B Fc) (Fc fusion)
chain: TQSAYESLKPQRVHFQSRNFHNILHWQPGRACTSNGSVYFVQYKMYGQRQWKNKEDCWGILECFCDLTNETSDIQEPYYGRVRTTSAGIHSGWTMTQRFTPWWETKIDPPIINITQVNGSLLVILHAPSLPYRDQKGKNVSIENYYELLYRVFIINNSLEKEQKVYEGAHRIVEIGALAPHTGYCVVAEMYQPMLDRRSPRSEERCMELPGGGGSGGGGSPKRENGRVPRPPDCPKCPAPEMLGGPSVFIFPPKPKDTLLIARTPEVTCVVVALDPEDPEVQISWFVDGKQMQTAKTQPREEQFAGTYRVVSVLPIGHQDWLKGKQFTCKVNNKALPSPIERTISKARGQAHQPSVYVLPPSREELSKNTVSLTCLIKDFFPPDIDVEWQSNGQQEPESKYRTTPPQLDEDGSYFLYSKLSVDKSRWQRGDTFICAVMHEALHNHYTQESLSHSPG
notes: also called cIL-22BP-Fc fusion protein; canine IL-22BP-Fc fusion protein
For B2, the binding result in assay [2] is given as “binds”.
